According to the nanobody polyreactivity screen of Harvey et al. (2022):

Test: yeast display, Sf9 membrane polyspecificity reagent, FACS + sequencing; frameworks hold sequencing errors
In short: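 Genes from sorted yeast were amplified by colony PCR, read by MiSeq 2 × 250 sequencing and filtered on CDR length. These cells carried a synthetic nanobody library in Saccharomyces cerevisiae BJ5465 and were sorted by FACS into low and high (top ~1%) gates on anti-HA and streptavidin fluorescence. Polyreactivity is labelled according to the gate of origin.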

Sequence	polyreactivity (PSR sort gate)
QVQLVESGGGLVQAGGSLRLSCAAYGSTFTRYTMGWYRQAPGKDRELVASSTRTGSTNYADSVKGRFTISRDNAKNTVYLQMYSLKPEDTAVYYCAGGRYYSYRFSFGYWGQGTQVTVSS	high polyreactivity
QVQLVESGGGLVQAGGSLRLSCAAYGYIFDHYAMGWYRQAPGKERELVAAINWSGGRTYYADSVKGRFTISRDNAKNTVYLQMNSLKPEDTAVYYCAAGGVSENDYWGQGTQVTVSS	high polyreactivity
QVQLVESGGGLVQAGGSLRLSCAAYSYVMGWNRQAPGKERELVAAISQSGGSTYYADSVKGRFTISRDNPKNTVYLQMNSLKPEDTAVYYCAARREPYQYNQYYSWGQGTKVTVSS	high polyreactivity
QVQLVESGGGLVQAGGSLRLSCAAYVRIIYDYAKGWYRQAPGKERELVAAISKGGGSTYYADSVKGRFTISRDNAKNTVYLQMNSLNPEDTAVYYCAASTSHTTDTRYDYLGQGTQVTVSS	low polyreactivity
QVQLVESGGGLVQAGGSLRLSCAAYYAMGWYRHAPGKERELVAAIDDGTSTNYADSVKGRFTISRDNAKNTVYLQMNSLKPEDTAVYYCNKLSEVTYYGSKFDYWGQGTQVTVSS	low polyreactivity
QVQLVESGGGLVQAGGSLRLSCADCGSIFSSNAKGWYRQEPGKERELVAAISRSACSTYYADSVKGRFTISRDIAKNTVYLQMNSLKQEDTAVYYCNGVTRLGTYDYWGQGSQVTVSS	high polyreactivity
QVQLVESGGGLVQAGGSLRLSCADSARILYHYAIGWYRQAHGKETELVAAITRGGGTNYADSVKGRFTISRDNAKNTVYLQMNSLKPEDTAVYYCNADRFIVTRSRRGDYWGQGTQVTVSS	low polyreactivity
QVQLVESGGGLVQAGGSLRLSCADSGFILSPNTMGWYRQAPGKERELVAAMSSDVSTYADSVTGRFTISRDNAKNTVYLQMNSLKPEDTAVYYCNADDFGYASYEYWGQGTQVTVSS	low polyreactivity
QVQLVESGGGLVQAGGSLRLSCADSGFILTYYAMGWYRQAPGKERELVAAISWSGGSTYYADSVKGRFTISRDNAKNTVYLQMNSLKPEDTAVYYCAAEKRYSSYDYWGQGTQVTVSS	high polyreactivity
QVQLVESGGGLVQAGGSLRLSCADSGFTFAANTMGWYRQAPGKARELVADISGRGDRTSYADSVKGRFTISRDNAKNTVYLQMNSLKPEDTAVYYCAVDIYYYSNVHYYYWGQGTQVTVSS	low polyreactivity
QVQLVESGGGLVQAGGSLRLSCADSGFTFSWYAMGWYRQAPGKERELVAAISLRGGSTYYADSVKGRFTISRENAKNTVYFQMNSLKPEDTAVYYCAADSFRWRYKNFYYWGQGTQVTLSS	high polyreactivity
QVQLVESGGGLVQAGGSLRLSCADSGFTFTLYAMGWYRQAPGKERELVAAISGIGGSTYYSDSVKGRFTISSDNAKNTVYLQMNSLKPEDTAVYYCNAVSGDSGDYWGQGTQVNVSS	low polyreactivity
QVQLVESGGGLVQAGGSLRLSCADSGFTFWRYAMGWYRQAPGKERELVAAISWRGSSTYYADSVKGRFTISRDIAKNTVYLQMNSLKPEDTAVYYCARYQSTYDSTYNYWGQGTQVTVSS	high polyreactivity
QVQLVESGGGLVQAGGSLRLSCADSGFTFYVYTMGWYRQAPAKERELVAAITWSGGSTYYADSVKGRFTISRDNAKNTVYLQMNSLKPEDTAVYYCNRVGYWVGHDSWGQGTQVTVSS	high polyreactivity
QVQLVESGGGLVQAGGSLRLSCADSGIIFTRYAMGWYRQAPGKERELVAVITQSGGRTYYADSVKGRFTISRDNAKNTVYLQLNSLKPEDTAVYYCAAAYKPSYFTRAGDYWGQGTQVTVSS	high polyreactivity
QVQLVESGGGLVQAGGSLRLSCADSGITFKYNAMGWYRQAPGKERELVAGITWTGGTTYYADSVKGRFTISRDNAKNTVYLQMNSLNPEDTAVYYCATRNYAVVPSVRREGYYWGQGTQVTVSS	low polyreactivity
QVQLVESGGGLVQAGGSLRLSCADSGITFYRYAMGWYRQAPGKERELVATITSSGGRTYYADSVKGRFTISRDNAKNTVYLQLNSLKPEDTAVYYSAAGKFSYRVYYQFRGGNYWGQGTQVTVSS	high polyreactivity
QVQLVESGGGLVQAGGSLRLSCADSGLIFTAHDMGWYRQAPGKERELVADISKSGSSTYYADSVKGRFTISRDNAKNTVYLQMNSLKPEDTAVYYCNADYLTYFTTFDYWGQGTQVTVSS	low polyreactivity
QVQLVESGGGLVQAGGSLRLSCADSGLTFQRYAMGWYRQAPGKERELVAAISQRGSSTYYADSVKGRFTISRDNAKNTVYLQMNSLKPEDTAVYYCNARPYLFWLSIYDYWGQGTQVTVSS	low polyreactivity
QVQLVESGGGLVQAGGSLRLSCADSGNIFYKYDMGWYRQAPGKERELVATISSDANTKYADSVKGRFTISRDNAKNTVYLHMNSLKPEDTAVYYCNVKDPVVRGALRDPTEYDSWGQGTQVTVSS	low polyreactivity
QVQLVESGGGLVQAGGSLRLSCADSGNTFYANAMGWYRQAPGKEREFVASITRSGGSTYYADSVKGRFTISRDNAKNTVYLQMNSLKPEVTAVYYCAADSWFKYDYWGQGTQVTVSS	low polyreactivity

Sequence	polyreactivity (PSR sort gate)
QVQLVESGGGLVQAGGSLRLSCADSGRIFADNAMGWYRHAPGKERELVAAITWSGGITFYADSVKGRFTISRDNAKKTVYLQMNSLKPEDTAVYYCATYGHRDTPYNYWGQGTQVTVSS	low polyreactivity
QVQLVESGGGLVQAGGSLRLSCADSGRIFAWYAMGWYRQAPGKERELVAVITSSDGSTHYADSVKGRFTISRDNAKNTVYLQMNSLKPEDTAVYYCNADSQRPRRRSNYWGQGTQVTVSS	low polyreactivity
QVQLVESGGGLVQAGGSLRLSCADSGRIFPQYTMGWYRQAPGKERELVAGISYGGVSTYYADSVKGRFTISRDNAKNTVYLHMNSLKPEDTAVYYCARPYGYRGYLRYYWGQGTQVTVSS	high polyreactivity
QVQLVESGGGLVQAGGSLRLSCADSGRIFRSNAMGWYRQAPGKERELVATITSSGGRTYYADSVKGRFTISRDNAKNSVYLQMNRLKPEVSAVYYCNAQQRTRGQKAQWVRDEYWGQGTQVTLSS	low polyreactivity
QVQLVESGGGLVQAGGSLRLSCADSGRIFRYYAMGWYRQAPGKERELVAAISGSGGSTYYADSVKGRFTISRDNSKNTVYLHMNSLKPEDTSVYYCAAAEYLYTLPYGYWGQGTQVTVSS	low polyreactivity
QVQLVESGGGLVQAGGSLRLSCADSGRIFSPNAMGWYRQAPGKETELVASISSAGSTNYADSVKGRFTISRDNAKNTVYLQMNSLKPEDTAFYYCAADYYGYWLSVHAWGAVTFDYWGQGTQVTVSS	low polyreactivity
QVQLVESGGGLVQAGGSLRLSCADSGRIFVHNAMGCYRQAPGKERELVAAISWRATRTYYADSVKGRFTISRDNAKNTVYLQMNSLKPEDTAVYYWAAVTPAYSTSSSSYDYWGQGTQVTVSS	high polyreactivity
QVQLVESGGGLVQAGGSLRLSCADSGRIFVRNAMGWYRPAPGKERELVADSTNGGSTNYADSVKGRFTISRDNAKNTVYLQRNSQKPEDTAVYYCAADTLGVYDGDYWGQGTQVTVSS	low polyreactivity
QVQLVESGGGLVQAGGSLRLSCADSGRIFVYYAMGWYRQAPGKERELVASISYSGASTYYADSVKGRFTISRDNAKNTVYLQMNSLKPEDTAVYYCARDVWNYWDGVFQYYSYDFDYWGQGTQVTVSS	low polyreactivity
QVQLVESGGGLVQAGGSLRLSCADSGRIFWANAMGWYRQAPGKERELVAAITWRGTSTYYADSVKGRFTISRDNAKNTVYLQMNSLKPEDTAVYYCAKVPYLKYGYDYWGQGTQVTVSS	high polyreactivity
QVQLVESGGGLVQAGGSLRLSCADSGRIYYSNAMGWSRQAPGKEREWVAAISRSGVRTYYADSVKGRYSISRDNAKNTVYLQKNSLKPEDTADYYCAAVIYGTTPQDEYDYWGQGTQVTVSS	low polyreactivity
QVQLVESGGGLVQAGGSLRLSCADSGRTFEPYTMGWYRQAPGKERELVAAISWRGGSTYADSVKGRFTISRDNAKNTVYLQMNSLKPEDTAVYYCAAEPYWHLDSQYFGREYDYWGQGTQVTVSS	low polyreactivity
QVQLVESGGGLVQAGGSLRLSCADSGRTFFYYAMGWYRQAPGKERELVAAITTGGSTNYADSVKGRFTISRDNAKNTDYLQMKSLNPEDTEVYFCNADYDKGVRFNFTASFGEFDYWGQGTQVTVSS	low polyreactivity
QVQLVESGGGLVQAGGSLRLSCADSGRTFYGNAMGWYRQAPGKERELVAAISISGGSTYYADSVKGRFTISRDNAKNTVYIQMNSLKPEDTAVYYCNAQEYYYYPYVYDSDYWGQGTQVTVSS	low polyreactivity
QVQLVESGGGLVQAGGSLRLSCADSGRTFYINAMGWYRQAPGKERELVAAISSSGGITYYADSVKGRFTISRENAKNTVYLQMNSLKPEDTAVYYCNAPYVYSWHYDYWGQGTQVTVSS	low polyreactivity
QVQLVESGGGLVQAGGSLRLSCADSGRTFYVNAMGWYRQAPGKEREFVAAISRRGGSTYYADSVKGRFTISRDNAKNTVYLQMNSLKPEDTAVYYCIAAYSSRYDYWGQGTQVTVSS	high polyreactivity
QVQLVESGGGLVQAGGSLRLSCADSGSIFDFNAMGWYRQAPGKERELVAAITWSGGSTYYADSVKGRFTLSRDNAKNTVYLQMNSLKPEDTAVYYCAADSLYDDFYYWGQGTQVTVSS	low polyreactivity
QVQLVESGGGLVQAGGSLRLSCADSGSIFKYYVMGWYRQAPGKERELVADITSGGSTKYADSVKGRFTISRDNAKNTVYLQMNSLKPADTAVYYCAASWWYEIFDYWGQGTQVTVSS	low polyreactivity
QVQLVESGGGLVQAGGSLRLSCADSGSIFRYYFMGCYRQAPGKERELVSAISSGGRTYYADSVKGRFTISRDNAKNTVYLQMNSLNPEDTAVYYCNDQGLFYCEMDYWGQGTQVTVSS	high polyreactivity
QVQLVESGGGLVQAGGSLRLSCADSGSIFWYYAMGWSRQAPGKETELVADITSTGGSTYYADSVKGRFTISRDYAKNTVYFQMNSLKPEVSAVYYCAAEACYHWYYSLGYWGQGTQVTVSS	high polyreactivity
